In patent US20230357364A1:

Target: SARS-CoV-1 RBD (RBD-1) (SARS-CoV-1)
Experiment: ELISA
Conditions: remark: other sources report otherwise

B1: L12.bP11A06 (antibody, V domains shown)
VH: EVQLVESGGGLIQPGGSLRLSCAASGLTVSSNYMSWVRQAPGKGLEWVSVIYSGGSTFYADSVKGRFTISRDNSKNTLYLQMNSLRAEDTAVYYCARDLDVYGLDVWGQGTTVTVSS
VL: DIVMTQSPSFLSASVGDRVTITCRASQGISSYLAWYQQKPGKAPKLLIYAASTLQSGVPSRFSGSGSGTEFTLTISSLQPEDFATYYCQQLNSYPPKFTFGPGTKVEIK
- EC50: > 50 µg/mL
